In experiment [1] the target is STING (Homo sapiens, UniProt Q86WV6). Briefly: STING cell based assay, drug library screen.
For experiment [2], the target named is T1, STING (Mus musculus, UniProt Q3TBT3).
T1 construct: expressed in transfected cells
T1 sequence (Q3TBT3 1-378): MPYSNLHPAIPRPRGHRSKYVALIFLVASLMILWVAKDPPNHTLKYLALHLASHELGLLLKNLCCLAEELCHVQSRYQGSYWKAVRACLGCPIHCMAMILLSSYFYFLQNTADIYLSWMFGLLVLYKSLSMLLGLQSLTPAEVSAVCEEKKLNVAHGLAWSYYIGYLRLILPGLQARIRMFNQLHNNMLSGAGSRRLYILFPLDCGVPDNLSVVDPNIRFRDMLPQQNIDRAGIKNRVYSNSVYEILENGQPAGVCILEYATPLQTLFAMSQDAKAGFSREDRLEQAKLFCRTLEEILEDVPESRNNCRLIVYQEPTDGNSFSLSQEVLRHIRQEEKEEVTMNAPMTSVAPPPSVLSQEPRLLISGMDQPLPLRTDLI
The experiment in a line: STING trafficking in MEFs stably transfected with HA-STING after ISD stimulation. The class given is cell-based, murine. The following applies: Brefeldin A (0.1 ng/ml) or chloroquine (0.1 mM) for 1 hour prior to ISD stimulation. Here is the method: FIG. 32B: MEFs stably transfected with HA-STING were treated with Brefeldin A (0.1 ng/ml) or chloroquine (0.1 mM) for 1 hour prior to ISD stimulation (3 hours 1 ng/ml in Lipofectamine 2000). Green=anti-HA and red=anti-calreticulin. FIG. 32C: Wild type MEFs were treated with Brefeldin A as above and IFNβ mRNA measured. FIGS. 32D, 32E: 293T cells were treated with various concentrations of Brefeldin A as above were co-transfected with STING, constitutively active IRF3 or IRF7 and IFN-luciferase reporter plasmid. Luciferase was measured after 24 hours. FIGS. 32F, 32G: Macrophages treated with various chloroquine amounts for one hour were treated with ISD (1 ng/ml), poly (dAT-dAT) [1 ng/ml] or LPS (1ng/ml) and after 16 hours IFNβ or IL6 measured by ELISA. FIG. 32H: STING^−/− MEFS were transfected with HA-STING or HA-STINGΔSP (that lacks the first 36 amino acids representing a potential signal peptide motif) for 24 hours prior to treatment with ISD (1 ng/ml). After 3 hours STING localization was measured using immunofluorescence and an anti-HA antibody (green) or anti calreticulin antibody (red). FIG. 32I: 293T cells were co-transfected with HA-STING or HA-STINGΔSP and an IFN-Luciferase plasmid and after 24 hours luciferase was measured. […] Asterisks indicate significant difference (P<0.05) as determined by Student's t-test. Error bars indicate s.d. […]

The test system of a further experiment is A366 peptide. Briefly: screening of kinases for S366 of STING (33P-ATP). The class given is biochemical. The following applies: kinase mixed with peptide and 33P-ATP. Here is the method:
(§1) The activity of 217 protein kinase targets were evaluated against 2 peptides (A366 and S366) as substrate. Protein kinases were mixed with each peptide and ^33P-ATP and then activity (CPM) was measured. The below kinases were identified as phosphorylating S366 in STING. Identification of kinases which target this serine opens up novel avenues for drug discovery. Drugs that target this association may inhibit STING activity and be used for therapeutic purposes to inhibit STING activity. STING over activity may lead to inflammatory diseases which can exacerbate cancer.

Another experiment relates to S366 peptide. The experiment in a line: screening of kinases for S366 of STING (33P-ATP). The class given is biochemical. The settings on record: for Fold inducton: S366 peptide vs A366 peptide; for Activity, S366 peptide: kinase mixed with peptide and 33P-ATP. Here is the method: as §1

Chain of STING (Homo sapiens, UniProt Q86WV6) (Q86WV6 whole entry): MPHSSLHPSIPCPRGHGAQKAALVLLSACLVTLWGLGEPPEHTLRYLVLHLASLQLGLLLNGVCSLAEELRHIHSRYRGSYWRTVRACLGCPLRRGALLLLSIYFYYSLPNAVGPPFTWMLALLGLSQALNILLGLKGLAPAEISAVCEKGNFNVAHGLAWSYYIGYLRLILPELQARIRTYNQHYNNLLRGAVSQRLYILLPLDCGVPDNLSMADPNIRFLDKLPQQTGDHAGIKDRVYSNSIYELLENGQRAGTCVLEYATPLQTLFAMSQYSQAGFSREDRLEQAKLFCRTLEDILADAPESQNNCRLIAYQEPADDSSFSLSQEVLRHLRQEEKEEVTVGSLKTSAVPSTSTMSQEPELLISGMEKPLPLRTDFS

Consider `O=C(O)/C=C\C(=O)O.O=C1/C(=C/c2ccccc2)C[C@@]2(O)[C@H]3Cc4ccc(O)c5c4[C@@]2(CCN3CC2CC2)[C@H]1O5` [BNTX maleate salt hydrate], for which the “Activators of STING” value on STING [1] was “Activators of STING”.

Take `CCN(CC)CCCC(C)Nc1ccnc2cc(Cl)ccc12` (stereo not shown) [chloroquine]: at STING [2], the STING trafficking result was “but not chloroquine blocked STING trafficking”.

With `C[C@H]1CCC/C=C/[C@@H]2C[C@H](O)C[C@H]2[C@H](O)/C=C/C(=O)O1` [Brefeldin A], the STING trafficking result on STING [2] was “blocked STING trafficking”.

B1: TBK1 (protein kinase panel) (enzyme)
chain: MQSTSNHLWLLSDILGQGATANVFRGRHKKTGDLFAIKVFNNISFLRPVDVQMREFEVLKKLNHKNIVKLFAIEEETTTRHKVLIMEFCPCGSLYTVLEEPSNAYGLPESEFLIVLRDVVGGMNHLRENGIVHRDIKPGNIMRVIGEDGQSVYKLTDFGAARELEDDEQFVSLYGTEEYLHPDMYERAVLRKDHQKKYGATVDLWSIGVTFYHAATGSLPFRPFEGPRRNKEVMYKIITGKPSGAISGVQKAENGPIDWSGDMPVSCSLSRGLQVLLTPVLANILEADQEKCWGFDQFFAETSDILHRMVIHVFSLQQMTAHKIYIHSYNTATIFHELVYKQTKIISSNQELIYEGRRLVLEPGRLAQHFPKTTEENPIFVVSREPLNTIGLIYEKISLPKVHPRYDLDGDASMAKAITGVVCYACRIASTLLLYQELMRKGIRWLIELIKDDYNETVHKKTEVVITLDFCIRNIEKTVKVYEKLMKINLEAAELGEISDIHTKLLRLSSSQGTIETSLQDIDSRLSPGGSLADAWAHQEGTHPKDRNVEKLQVLLNCMTEIYYQFKKDKAERRLAYNEEQIHKFDKQKLYYHATKAMTHFTDECVKKYEAFLNKSEEWIRKMLHLRKQLLSLTNQCFDIEEEVSKYQEYTNELQETLPQKMFTASSGIKHTMTPIYPSSNTLVEMTLGMKKLKEEMEGVVKELAENNHILERFGSLTMDGGLRNVDCL
As to B1, the “Activity, A366 peptide” value in the experiment on A366 peptide turned out to be 6603 cpm. The Fold inducton in the experiment with S366 peptide is listed as 2.52. Besides, the “Activity, S366 peptide” value with S366 peptide was 16651 cpm. The Activity (cpm), kinase mixed with peptide and 33P-ATP turned out to be 16700 cpm in the experiment with S366 peptide of STING and 6600 cpm with A366 peptide of STING.

B2: ULK2 (enzyme)
chain: MEVVGDFEYSKRDLVGHGAFAVVFRGRHRQKTDWEVAIKSINKKNLSKSQILLGKEIKILKELQHENIVALYDVQELPNSVFLVMEYCNGGDLADYLQAKGTLSEDTIRVFLHQIAAAMRILHSKGIIHRDLKPQNILLSYANRRKSSVSGIRIKIADFGFARYLHSNMMAATLCGSPMYMAPEVIMSQHYDAKADLWSIGTVIYQCLVGKPPFQANSPQDLRMFYEKNRSLMPSIPRETSPYLANLLLGLLQRNQKDRMDFEAFFSHPFLEQGPVKKSCPVPVPMYSGSVSGSSCGSSPSCRFASPPSLPDMQHIQEENLSSPPLGPPNYLQVSKDSASTSSKNSSCDTDDFVLVPHNISSDHSCDMPVGTAGRRASNEFLVCGGQCQPTVSPHSETAPIPVPTQIRNYQRIEQNLTSTASSGTNVHGSPRSAVVRRSNTSPMGFLRPGSCSPVPADTAQTVGRRLSTGSSRPYSPSPLVGTIPEQFSQCCCGHPQGHDSRSRNSSGSPVPQAQSPQSLLSGARLQSAPTLTDIYQNKQKLRKQHSDPVCPSHTGAGYSYSPQPSRPGSLGTSPTKHLGSSPRSSDWFFKTPLPTIIGSPTKTTAPFKIPKTQASSNLLALVTRHGPAEE
With B2, the “Activity, A366 peptide” value with A366 peptide is given as 7377 cpm. The molecule also had a Fold inducton with S366 peptide of 21.13. Also, the “Activity, S366 peptide” value in the experiment with S366 peptide was found to be 15580 cpm. Also, the Activity (cpm), kinase mixed with peptide and 33P-ATP with S366 peptide of STING was 15600 cpm; in the experiment with A366 peptide of STING, 7380 cpm.

B3: ULK1 (enzyme)
chain: MEPGRGGTETVGKFEFSRKDLIGHGAFAVVFKGRHREKHDLEVAVKCINKKNLAKSQTLLGKEIKILKELKHENIVALYDFQEMANSVYLVMEYCNGGDLADYLHAMRTLSEDTIRLFLQQIAGAMRLLHSKGIIHRDLKPQNILLSNPAGRRANPNSIRVKIADFGFARYLQSNMMAATLCGSPMYMAPEVIMSQHYDGKADLWSIGTIVYQCLTGKAPFQASSPQDLRLFYEKNKTLVPTIPRETSAPLRQLLLALLQRNHKDRMDFDEFFHHPFLDASPSVRKSPPVPVPSYPSSGSGSSSSSSSTSHLASPPSLGEMQQLQKTLASPADTAGFLHSSRDSGGSKDSSCDTDDFVMVPAQFPGDLVAEAPSAKPPPDSLMCSGSSLVASAGLESHGRTPSPSPPCSSSPSPSGRAGPFSSSRCGASVPIPVPTQVQNYQRIERNLQSPTQFQTPRSSAIRRSGSTSPLGFARASPSPPAHAEHGGVLARKMSLGGGRPYTPSPQVGTIPERPGWSGTPSPQGAEMRGGRSPRPGSSAPEHSPRTSGLGCRLHSAPNLSDLHVVRPKLPKPPTDPLGAVFSPPQASPPQPSHGLQSCRNLRGSPKLPDFLQRNPLPPILGSPTKAVPSFDFPKTPSSQNLLALLARQ
Take B3: the “Activity, A366 peptide” value in the experiment on A366 peptide is reported as 12221 cpm. This molecule registered a Fold inducton in the experiment on S366 peptide of 17.10. The “Activity, S366 peptide” value with S366 peptide is on record as 209014 cpm. Besides, the Activity (cpm), kinase mixed with peptide and 33P-ATP with S366 peptide of STING was 209000 cpm; with A366 peptide of STING, 12200 cpm.

B4: NEK9 (enzyme)
chain: MSVLGEYERHCDSINSDFGSESGGCGDSSPGPSASQGPRAGGGAAEQEELHYIPIRVLGRGAFGEATLYRRTEDDSLVVWKEVDLTRLSEKERRDALNEIVILALLQHDNIIAYYNHFMDNTTLLIELEYCNGGNLYDKILRQKDKLFEEEMVVWYLFQIVSAVSCIHKAGILHRDIKTLNIFLTKANLIKLGDYGLAKKLNSEYSMAETLVGTPYYMSPELCQGVKYNFKSDIWAVGCVIFELLTLKRTFDATNPLNLCVKIVQGIRAMEVDSSQYSLELIQMVHSCLDQDPEQRPTADELLDRPLLRKRRREMEEKVTLLNAPTKRPRSSTVTEAPIAVVTSRTSEVYVWGGGKSTPQKLDVIKSGCSARQVCAGNTHFAVVTVEKELYTWVNMQGGTKLHGQLGHGDKASYRQPKHVEKLQGKAIRQVSCGDDFTVCVTDEGQLYAFGSDYYGCMGVDKVAGPEVLEPMQLNFFLSNPVEQVSCGDNHVVVLTRNKEVYSWGCGEYGRLGLDSEEDYYTPQKVDVPKALIIVAVQCGCDGTFLLTQSGKVLACGLNEFNKLGLNQCMSGIINHEAYHEVPYTTSFTLAKQLSFYKIRTIAPGKTHTAAIDERGRLLTFGCNKCGQLGVGNYKKRLGINLLGGPLGGKQVIRVSCGDEFTIAATDDNHIFAWGNGGNGRLAMTPTERPHGSDICTSWPRPIFGSLHHVPDLSCRGWHTILIVEKVLNSKTIRSNSSGLSIGTVFQSSSPGGGGGGGGGEEEDSQQESETPDPSGGFRGTMEADRGMEGLISPTEAMGNSNGASSSCPGWLRKELENAEFIPMPDSPSPLSAAFSESEKDTLPYEELQGLKVASEAPLEHKPQVEASSPRLNPAVTCAGKGTPLTPPACACSSLQVEVERLQGLVLKCLAEQQKLQQENLQIFTQLQKLNKKLEGGQQVGMHSKGTQTAKEEMEMDPKPDLDSDSWCLLGTDSCRPSL
Regarding B4, the “Activity, A366 peptide” value in the experiment on A366 peptide was 6977 cpm. Moreover, in the experiment with S366 peptide, the Fold inducton worked out at 3.77 and the “Activity, S366 peptide” value is given as 26284 cpm. In addition, the Activity (cpm), kinase mixed with peptide and 33P-ATP in the experiment with S366 peptide of STING was 26300 cpm. In addition, the Activity (cpm), kinase mixed with peptide and 33P-ATP with A366 peptide of STING came to 6980 cpm.

B5: RIPK5 (enzyme)
chain: SICSQFRTRLNSSHEAFAASLRQLEAGHSGRLEKTEDLWLRVRKDHAPRLARLSLESCSLQDVLLHRKPKLGQELGRGQYGVVYLCDNWGGHFPCALKSVVPPDEKHWNDLALEFHYMRSLPKHERLVDLHGSVIDYNYGGGSSIAVLLIMERLHRDLYTGLKAGLTLETRLQIALDVVEGIRFLHSQGLVHRDIKLKNVLLDKQNRAKITDLGFCKPEAMMSGSIVGTPIHMAPELFTGKYDNSVDVYAFGILFWYICSGSVKLPEAFERCASKDHLWNNVRRGARPERLPVFDEECWQLMEACWDGDPLKRPLLGIVQPMLQGIMNRLCKSNSEQPNRGLDDST
On to B5, for which, in the experiment with A366 peptide, the “Activity, A366 peptide” value worked out at 1327 cpm. Also, in the experiment with S366 peptide, the Fold inducton was found to be 12.03 and the “Activity, S366 peptide” value is given as 15966 cpm. Moreover, the Activity (cpm), kinase mixed with peptide and 33P-ATP in the experiment with S366 peptide of STING was found to be 16000 cpm. Besides, the Activity (cpm), kinase mixed with peptide and 33P-ATP with A366 peptide of STING turned out to be 1330 cpm.

Values taken from patent US20180085432A1, “STING (Stimulator of Interferon Genes), A Regulator of Innate Immune Responses” (University of Miami, priority 2008, published 2018).
